Experiments:
[1] = target: thiopeptolide Ac-Pro-Leu-Gly-thioester-Leu-Leu-Gly-OEt (not provided)

In the case of “human stromelysin catalytic domain protein (enzyme)”, the Proteoglycan Degradation (µg of Chondroitin Sulfate/h) (µg of Chondroitin Sulfate/h) (proteoglycan) is reported as 8 and the hydrolysis of the thiopeptolide substrate (Km, kcat) [1] is reported as 270 µM.
